Experiment: soluble on expression in E. coli; label from the status in PepcDB or PDB records

Row | Sequence | soluble on expression in E. coli
1 | SARRYDELPHYPGIVDGPAALASFPETVPAVPGPYGPHRPPQPLPPGLDSDGLKREKDEIYGHPLFPLLALVFEKCELATCSPRDGAGAGLGTPPGGDVCSSDSFNEDIAAFAKQVRSERPLFSSNPELDNLMIQAIQVLRFHLLELEKGKMPIDLVIEDRDGGCREDFEDYPASCPSLPDQNNMWIRDHEDSGSVHLGTPGPSSGGLASQSGDNSSDQGDGLDTSVASPSSGGEDEDLDQERRRNKKRGIFPKVATNIMRAWLFQHLSHPYPSEEQKKQLAQDTGLTILQVNNWFINARRRIVQPMIDQSNRTGQGAAFSPEGQPIGGYTETQPHVAVRPPGSVGMSLNLEGEWHYL | soluble
2 | SAVERVEILRDGAAAQYGSDAIAGVVNIILKAKSTGGGIAYQYGGYTQGDGDQQKILGWKSFALPNDGSVTVAFDAGKRDAANNTLPDSRKFYNSSSSTNAQYNDQNTPYRTWRFGSPEIKDQINLSYNADLPLADDTSLYSFGTYGHRKTIGEGFYEPSTATAAVNQSIYYKERYPDGRIPLSIVTVDDFALTAGAKKGDQKTGKLDGFVTYGRNKVHTDQDNGINPSYGSGSPSSYSLGDNIFSQLNTGLDYSLDANTSWFYHPITVSTGILYRWEQYQQVAGDPVAYTRGPYYNVTTAPEIYSGITDADQRKIDRNVYGAYLDLETEIVKDLNVGVALRSEKYSDFGNTTNGKLTLKYDFDPKLNLRGSASTGYRAPS | not soluble
3 | SDDREMDDGRWKASALRVPLQVSSAVIKQEVVTRLAPDPVPLTEGAIGIFLSGTEPESGQEDSGYKVIDNRKYVYSEGHWGPPTANDTIYLVGNDADVCAYYPYKDSYTDKTVIPLQSQDYVETEDIYYALNTMINGFTPAITFDMVHAYSLVELKISRENYFMPCEISKITLKNSNLIKKGTINIAVDGSIHSSETGNYDLTTVTDASPHTLSVGESYVCRVLMIPVPLKIERTDAEGGEFGLSVSLVIDGQQMLVEIPYSELGEFRQGEKYVIGLKIKGTEIVPTVKALEWEDEEVNGGNKYPVE | soluble
4 | SDLPDSASRVFCGRILSMVNTDDVNAIILAQKNMLDRFEKTNEMLLNFNNLSSARLQQMSERFLHHTRTLVEMKRDLDSIFRRIRTLKGKLARQHPEAFSHIPEASFLEEEDEDPIPPSTTTTIATSEQSTGSCDTSPDTVSPSLSPGFEDLSHVQAGSPAINGRSQTDDEEMTGE | soluble
5 | SDNISLEYFEEAVCYMLQHPQVKGPGIGLLGISLGADICLSMASFLKNVSATVSINGSGISGNTAINYKHSSIPPLGYDLRRIKVAFSGLVDIVDIRNALVGGYKNPSMIPIEKAQGPILLIVGQDDHNWRSELYAQTVSERLQAHGKEKPQIICYPGTGHYIEPPYFPLCPASLHRLLNKHVIWGGEPRAHSKAQEDAWKQILAFFCKHLGGTQKTAVPKL | soluble
6 | SDWKEVLRRRLATPNTCPNKKKSEQELKDEEMDLFTKYYSEWKGGRKNTNEFYKTIPRFYYRLPAEDEVLLQKLREESRAVFLQRKSRELLDNEELQNLWFLLDKHQTPPMIGEEAMINYENFLKVGEKAGAKCKQFFTAKVFAKLLHTDSYGRISIMQFFNYVMRKVWLHQTRIGLSLYDVAGQGYLRESDLENYILELIPTLPQLDGLEKSFYSFYVCTAVRKFFFFLDPLRTGKIKIQDILACSFLDDLLELRDEELSKESQETNWFSAPSALRVYGQYLNLDKDHNGMLSKEELSRYGTATMTNVFLDRVFQECLTYDGEMDYKTYLDFVLALENRKEPAALQYIFKLLDIENKGYLNVFSLNYFFRAIQELMKIHGQDPVSFQDVKDEIFDMVKPKDPLKISLQDLINSNQGDTVTTILIDLNGFWTYENREALVANDSENSADLDDT | soluble
7 | SEDEWQCTECKKFNSPSKRYCFRCWALRKDWYSDCSKLTH | soluble
8 | SEDSGKTFSSEEEEANYWKDLAMTYKQRAENTQEELREFQEGSREYEAELETQLQQIETRNRDLLSENNRLRMELETIKEKFEVQHSEGYRQISALEDDLAQTKAIKDQLQKYIRELEQANDDLERAKRATIMSLEDFEQRLNQAIERNAFLESELDEKENLLESVQRLKDEARDLRQELAVQQKQEKPRTPMPSSVEAERTDTAVQATGSVPSTPIAHRGPSSSLNTPGSFRRGLDDSTGGTPLTPAARISALNIVGDLLRKVGALESKLASCRNLVYDQSPNRTGGPASGRSSKNRDGGERRPSSTSVPLGDKGLDTSCRWLSKSTTRSSSSC | soluble
9 | SEEAGSVALEELVEKEKDRFFSGVDYIVISDNLWISQRKPAITYGTRGNSYFMVEVKCRDQDFHSGTFGGILHEPMADLVALLGSLVDSSGHILVPGIYDEVVPLTEEEINTYKAIHLDLEEYRNSSRVEKFLFDTKEEILMHLWRYPSLSIHGIEGAFDEPGTKTVIPGRVIGKFSIRLVPHMNVSAVEKQVTRHLEDVFSKRNSSNKMVVSMTLGLHPWIANIDDTQYLAAKRAIRTVFGTEPDMIRDGSTIPIAKMFQEIVHKSVVLIPLGAVDDGEHSQNEKINRWNYIEGTKLFAAFFLEMAQLH | soluble
10 | SENVPFASKERADIFSMRTLIDFGGIAILHAYQSRISEYIAEKELSAMNVILKSQYDQYRNYQDSLDLIQMKYHDLKHQITALRAESDAEKRKKWIDAMEEEVSAFENMSKTGNQVLDTILAAKIFHCRKNHIQITCVADGKLLDFIHVTDLCSIFGNALDNAIEHVIMIPEAEKRLIHLTVSAKKSFVFIKIENYCEDKIQKNENDLITTTKADRQNHGFGLKSIRTVVEKYNGSVDFGVDQNWFELKILLPRVM | not soluble
11 | SEPIYEEYLANHGTIVKPYYWLSFSLDCSNCPYHIRTGEEARVSLTEFCQIFGFPYGTTFPQTKHLTFYELKTSSGSLVQKGHASSCTGNYIHPESMLFEMNGYLDSAIYNNDSIRHIILYSNNSPCNEANHCCISKMYNFLITYPGITLSIYFSQLYHTEMDFPASAWNREALRSLASLWPRVVLSPISGGIWHSVLHSFISGVSGSHVFQPILTGRALADRHNAYEINAITGVKPYFTDVLLQTKRNPNTKAQEALESYPLNNAFPGQFFQMPSGQLQPNLPPDLRAPVVFVLVPLRDLPPMHMGQNPNKPRNIVRHLNMPQMSFQETKDLGRLPTGRSVEIVEITEQFASSKEADEKKKKKGKK | soluble
12 | SESVHPGNHNLDTLSHSQISKEEETFPSHQLYTFQAPWLVYGLAWCNRVNSPYSLALSSFIESCNNKIILVELNDKTEDFQQVVQVDHPYPASKVAFIPDYSGTRPQLLATSGDALRIWEWSNDNLKSKALLSTNPESEYCAPLTSFDWCEVNPATLCTSSVDTTCTIWDVETQQAKTQLIAHDKEVYDVAFQTGTDKIFASAGADASVRCFDLRNLETSTILYEIPDDSTPILRIGWNKKEPNYMAALVMDSSKFLLLDIRVPSLPVAEMEHKLTNHKRHKSVNAIHWAPHSSSHICSAGDDCYTLIWDISAIPRPIEEPILSYQSDREVNNLQWSAADPDWIAIAAGNKMQILRV | soluble
13 | SETILEQQRRYHEEKERLMDVMAKEMLTKKSTLRDQINSDHRTRAMQDRYMEVSGNLRDLYDDKDGLRKEELNAISGPNEFAEFYNRLKQIKEFHRKHPNEICVPMSVEFEELLKARENPSEEAQNLVEFTDEEGYGRYLDLHDCYLKYINLKASEKLDYITYLSIFDQLFDIPKERKNAEYKRYLEMLLEYLQDYTDRVKPLQDQNELFGKIQAEFEKKWENGTFPGWPKETSSALTHAGAHLDLSAFSSWEELASLGLDRLKSALLALGLKCGGTLEERAQRLFSTKGKSLESLDTSLFAKNPKSKGTKRDTERNKDIAFLEAQIYEYVEILGEQRHLTHENVQRKQARTGEEREEEEEEQISESESEDEENEIIYNPKNLPLGWDGKPIPYWLYKLHGLNINYNCEICGNYTYRGPKAFQRHFAEWRHAHGMRCLGIPNTAHFANVTQIEDAVSLWAKLKLQKASERWQPDTEEEYEDSSGNVVNKKTYEDLKRQGLL | soluble
14 | SEVERKIVSLEALYIVYDADGTVAGELLYLLRKWLGKGHCAACDITHGPRKVKPEWTILQKTGWLGVPLFNIHRDEMEPKLRSAVSCALPCVAALVDNGDYVLLLQPEDLESCKGQVSKLQEKIVEALKDFGFQVNESFTSVVTSDLSDTCPSTLDREKEEDDAVVPF | soluble
15 | SFAAIASGNPLQLSVEVPNSNGLQHTIVLSRTKPKLYSHITLFILPNVTFPQDYIATVYFKLSPQEEFKLFGYLSSEKPSAIFKVQIPSSKKDAGDTSDGLGEIDMDVDDGSGAADPFTDTNGSSSNNISELIIGISIEPREQGMMKLEEWKASMNAEAQKNNSLILSRPNLGIIRNITTAGQLAQVYPSLTQELAAKIVQHAYNYLSGFLDAQGNVPIKRFDTWWDKFRNRLANDGTFLDEVTKN | soluble
